Laboratory results as given in patent KR20230108156A (dated 2023).

How the values were obtained:
[1] = molecular target: CD40L on CD40L 표면발현 CHO 세포 (CHO cells expressing CD40L on the surface, ATCC) (UniProt P29965); assay: cell-based or functional assay
[2] = molecular target: 재조합 인간 CD40L 단백질 (recombinant human CD40L protein, Sino biological, Accession#: NP_000065.1, Cat: 10239-H08E) (human) (UniProt P29965); assay: cell-based or functional assay
[3] = molecular target: CD40L on CD40L 표면발현 CHO 세포 (CHO cells expressing CD40L on the surface, ATCC) (UniProt P29965); assay: flow cytometry on CD40L CHO cells, 0.01-0.5 μg/test
[4] = molecular target: T1, CD40 on CD40 표면발현 CHO 세포 (CHO cells expressing CD40 on the surface, ATCC) (UniProt P25942 21-277, limits assumed); assay: flow cytometry on CD40 CHO cells, goat anti-mouse Ig-FITC
T1 construct: whole, on cells; also called CD40 CHO 세포
T1 sequence (P25942 21-277 limits assumed): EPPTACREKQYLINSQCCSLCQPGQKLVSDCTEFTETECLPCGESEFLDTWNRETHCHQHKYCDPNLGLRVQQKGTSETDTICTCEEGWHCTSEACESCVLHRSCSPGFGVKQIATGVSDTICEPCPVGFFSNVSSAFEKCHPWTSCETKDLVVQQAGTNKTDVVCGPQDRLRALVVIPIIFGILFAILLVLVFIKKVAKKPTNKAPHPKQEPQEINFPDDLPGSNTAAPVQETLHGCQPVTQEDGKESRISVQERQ

[5] = molecular target: T2, CD40L in lysates of Jurkat cells and HeLaS3 cells (32 ~ 39 kDa band) (human, UniProt P29965 1-261); assay: western blot of Jurkat and HeLaS3 lysates, reducing and non-reducing, 14D6 0.5 μg/ml
T2 construct: Denatured protein on a PVDF membrane
T2 sequence (looked up): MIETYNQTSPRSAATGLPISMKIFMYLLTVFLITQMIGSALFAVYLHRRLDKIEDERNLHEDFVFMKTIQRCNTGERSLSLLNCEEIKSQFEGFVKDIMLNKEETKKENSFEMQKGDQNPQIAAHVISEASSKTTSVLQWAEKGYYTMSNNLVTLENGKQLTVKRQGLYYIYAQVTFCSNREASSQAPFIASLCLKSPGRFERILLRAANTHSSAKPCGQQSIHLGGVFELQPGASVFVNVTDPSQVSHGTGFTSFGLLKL

[6] = molecular target: T3, CD40L induced on T cells of human PBMC stimulated with PMA and ionomycin (human, UniProt P29965 1-261); assay: flow cytometry on PMA/ionomycin-stimulated human PBMC, 0.1 μg, CD3-APC gate, anti-mouse Ig-FITC
T3 construct: whole, on cells
T3 sequence (looked up): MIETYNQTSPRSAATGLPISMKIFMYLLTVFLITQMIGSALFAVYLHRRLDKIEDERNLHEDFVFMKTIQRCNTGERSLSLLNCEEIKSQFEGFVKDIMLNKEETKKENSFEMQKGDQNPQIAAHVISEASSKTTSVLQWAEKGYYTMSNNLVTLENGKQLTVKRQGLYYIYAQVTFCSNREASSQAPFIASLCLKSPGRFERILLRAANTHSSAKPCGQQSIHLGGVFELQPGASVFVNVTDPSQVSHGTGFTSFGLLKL

[7] = molecular target: CD40L-hFc 단백질 (Sino biological, Accession#: NP_000065.1, Cat: 10239-H01H) (human) (UniProt P29965); assay: competition, flow cytometry: 14D6 pre-mixed with CD40L-hFc (2 μg), binding to CD40 on Bjab cells read
[8] = molecular target: 재조합 인간 CD40L 단백질 (recombinant human CD40L protein, Sino biological, Accession#: NP_000065.1, Cat: 10239-H08E) (human) (UniProt P29965); assay: ELISA, plate coated with recombinant human CD40L 100 ng/well, 14D6 two-fold dilutions from 1000 ng/ml, anti-mouse IgG-HRP

ICAM-1 expression on Ramos B cells co-cultured with CD40L CHO cells (flow cytometry) [1]: > 0.5 μg/test | antibody concentration for complete blocking of SEAP OD 655nm (HEK-Blue CD40L cells), CD40L 12.5ng/ml [2]: > 50 ng/mL | antibody concentration for complete blocking of SEAP OD 655nm (HEK-Blue CD40L cells), CD40L printed as 12.5ng/ml a second time (25ng/ml probably meant) [2]: > 500 ng/mL | amount at which binding is saturated [3]: > 0.1 µg | binding result [4]: no binding (tested: 0.05μg/test) | binding result [5]: binds | binding result [6]: binds | amount at which blocking equals the negative control [7]: > 0.1 µg | concentration at which binding is saturated [7]: > 0.1 μg/50μl | concentration at which binding is saturated [8]: > 100 ng/mL
B1: 14D6-52-5 단일클론항체 (14D6 단클론항체, mouse) (antibody, V domains shown)
VH: QVQLQQSGAELVKPGASVKLSCKASGYTFTRYYMFWVKQRPGQGLEWIGEINPTNGDTNFNEEFKSKATLTVDKSSSTAYMQLSSLTSEDSAVYYCTRPLGSRDAMDYWGPGTSVTVSS
VL: DIVLTQSPASLAVSLGQRATISCRASQSVSSSRYSYMHWYQQKPGQPPKLLIKYASSLESGVPARFSGSGSGTDFTLNIHPVEGEDTATYYCQHSWELPWTFGGGTKLEIK
notes: Mouse monoclonal antibody from a hybridoma (Balb/c mouse immunised with recombinant human CD40L); also called 14D6 마우스항체; Mouse 14D6
